Laboratory results from the supplement of paper PMC10724198.
± gives the standard deviation of the averaged measurements.

System: Saccharomyces cerevisiae
Assay: protein stability index of tFT-peptide fusion (C-terminal peptide) (PSI (0-1 scale)); higher = more stable (slower turnover)
Details: genetic background: wild type; temperature: 30 C
Description: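 Multiplexed protein stability (MPS) profiling in S. cerevisiae. Random 12-aa peptides (tFT-X12 library) are fused to the C-terminus of a sfGFP-mCherry tandem fluorescent timer, after mCherry and a GGGS linker. Cells are FACS-sorted into 8 mCherry/sfGFP bins and deep-sequenced. The protein stability index (PSI) is the read-weighted bin average, scaled from 0 (unstable) to 1 (stable). Only peptides with >10 reads are reported; cells were grown at 30 °C in SC-His with glucose.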
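Note: PSI is a weighted mean of sequencing reads over stability bins, variants kept only with over 10 reads, mCherry proximal and sfGFP distal, peptide attached via GGGS linker.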

| Sequence | protein stability index |
| --- | --- |
| ICIGRDISNQSC | 0.703 ± 0.021 |
| ICLPPVSDVLIR | 0.676 ± 0.0084 |
| ICVSGALMARAL | 0.6798 ± 0.0036 |
| IDFISSVLSYLS | 0.663 ± 0.013 |
| IDKRWVKKGGDK | 0.64 ± 0.071 |
| IDLGWSRWGALA | 0.662 ± 0.086 |
| IDPPSLCTPPPP | 0.635 ± 0.034 |
| IDSKSPTHPLHQ | 0.71 ± 0.059 |
| IDSSLERVRQHS | 0.677 ± 0.058 |
| IDYCWLPDGYQM | 0.683 ± 0.068 |
| IECKKIDKKIKE | 0.688 ± 0.035 |
| IEIGTEEGKCTT | 0.707 ± 0.053 |
| IEKKKIDNKVKS | 0.712 ± 0.079 |
| IEKYRKNKKTGK | 0.677 ± 0.016 |
| IENKKEKKIMIE | 0.6652 ± 0.0037 |
| IETQKNNKLRRL | 0.699 ± 0.015 |
| IEVSRRDLRIHL | 0.6949 ± 0.0032 |
| IEWGPITTLTQT | 0.718 ± 0.02 |
| IFFFFHSPYFFS | 0.68 ± 0.018 |
| IFGCPEFFCFLL | 0.696 ± 0.061 |
| IFLLLHSPSSAS | 0.697 ± 0.014 |
| IFPVFHPPFVVI | 0.557 ± 0.05 |
| IFWGFSFRGWGC | 0.683 ± 0.015 |
| IFYTHRSLSGNL | 0.659 ± 0.036 |
| IGCSELSGLGGY | 0.769 ± 0.12 |

| Sequence | protein stability index |
| --- | --- |
| IGCTRSREESRE | 0.689 ± 0.013 |
| IGFLGYTRSIRN | 0.617 ± 0.096 |
| IGGFGVRIYFGG | 0.627 ± 0.056 |
| IGLCGWVSGAAT | 0.7274 ± 0.0069 |
| IGLSPICAAAYT | 0.6515 ± 0.001 |
| IGTSGFFSSQAS | 0.743 ± 0.065 |
| IIKKKKKIKRNN | 0.683 ± 0.014 |
| IKACGLRSFIKS | 0.69 ± 0.059 |
| IKIKKKKKKRHR | 0.651 ± 0.059 |
| IKIRIAANRTKY | 0.63796 ± 0.00029 |
| IKKIEKANRKTK | 0.661 ± 0.034 |
| IKKKKKKESRSS | 0.693 ± 0.065 |
| IKKKKKKKQRKQ | 0.65 ± 0.069 |
| IKKKNRKERQKK | 0.678 ± 0.015 |
| IKKTKNKETKKT | 0.676 ± 0.045 |
| IKMKRMTKIKKK | 0.745 ± 0.049 |
| IKNIKKKKSKTE | 0.702 ± 0.065 |
| IKRLNNEKSSKA | 0.676 ± 0.035 |
| IKSKERLKKRQS | 0.6679 ± 0.00067 |
| IKTQKNKQITKI | 0.705 ± 0.071 |
| IKVNAVAWLFGS | 0.582 ± 0.032 |
| ILFKSTRAICSL | 0.621 ± 0.051 |
| ILGDGRLRLISF | 0.682 ± 0.05 |
| ILILDTKPISKT | 0.7258 ± 0.006 |
| ILLFLRCFSGFF | 0.5619 ± 0.0046 |

| Sequence | protein stability index |
| --- | --- |
| ILLFSLKHRSDH | 0.63 ± 0.018 |
| ILLLKFSKLNKK | 0.66 ± 0.033 |
| ILLPLRHHSFSD | 0.643 ± 0.0087 |
| ILLSLSRWGMAG | 0.723 ± 0.024 |
| ILLYSPFGPPSS | 0.673 ± 0.026 |
| ILPPPYVPARLS | 0.577 ± 0.054 |
| ILSDRVLRVGVK | 0.65502 ± 0.00049 |
| ILSWSGLSTGLE | 0.876 ± 0.065 |
| ILTALRNQPFLM | 0.669 ± 0.033 |
| ILTPPPLPDLLP | 0.706 ± 0.019 |
| IMKRNKKIKREI | 0.711 ± 0.024 |
| INKKKQRIRGKN | 0.69 ± 0.064 |
| INLRENETKQRN | 0.673 ± 0.038 |
| INPKSGIVVKFR | 0.679 ± 0.04 |
| IPDRSLFPWTGR | 0.661 ± 0.012 |
| IPFEPSGPFMRN | 0.7362 ± 0.007 |
| IPLPPHLTPPST | 0.677 ± 0.086 |
| IPPDAFAQLTYS | 0.733 ± 0.0093 |
| IPVGTVGTLNAA | 0.66 ± 0.057 |
| IQRLGTKNTNRI | 0.647 ± 0.039 |
| IRLLNKAACVTM | 0.742 ± 0.04 |
| IRLSCGRVGGVV | 0.648 ± 0.012 |
| IRLYGQATFRWE | 0.625 ± 0.086 |
| IRNDERHSKNQD | 0.74 ± 0.062 |
| IRNGYVGNYKGN | 0.744 ± 0.025 |

| Sequence | protein stability index |
| --- | --- |
| IRQRSRGGLSSD | 0.684 ± 0.021 |
| IRYARSYDMSEC | 0.654 ± 0.04 |
| ISCWHGYAKESS | 0.671 ± 0.039 |
| ISIVKENSSLTC | 0.6552 ± 0.0053 |
| ISPCCGVPWLLR | 0.708 ± 0.025 |
| ISRFSLTFPFHR | 0.6947 ± 0.0039 |
| ISRSLVDHQARP | 0.695 ± 0.045 |
| ISVLSIFVDSFV | 0.528 ± 0.0062 |
| ISWCPRHPFSSD | 0.752 ± 0.014 |
| ISWERIHEKKRK | 0.784 ± 0.096 |
| ISYGSGCGIVNH | 0.683 ± 0.054 |
| ISYYDVYLSFLF | 0.745 ± 0.13 |
| ITGPPTGSPRYR | 0.588 ± 0.23 |
| ITIVVATRPPGA | 0.617 ± 0.013 |
| ITLFPKGLRANK | 0.686 ± 0.045 |
| ITLLYFAGVSVL | 0.513 ± 0.0074 |
| ITRATPILSYKK | 0.677 ± 0.09 |
| ITSLQAPPEYLH | 0.6922 ± 0.0062 |
| ITTVRGALLARY | 0.666 ± 0.068 |
| ITYRTSGMGIRA | 0.6182 ± 0.0028 |
| IVALDGWPGVEA | 0.7226 ± 0.0055 |
| IVCLWVAGHFGL | 0.602 ± 0.014 |
| IVHIKRVLGNAA | 0.636 ± 0.012 |
| IVPVCFVTDQHA | 0.6605 ± 0.00071 |
| IWGGAVQARFKG | 0.733 ± 0.14 |

| Sequence | protein stability index |
| --- | --- |
| KADLKTKNMCRL | 0.765 ± 0.017 |
| KAEKMRARQKED | 0.657 ± 0.011 |
| KAGKFLVGKSLS | 0.657 ± 0.026 |
| KCPPQKRPTLIQ | 0.679 ± 0.098 |
| KDEVESGRGLIS | 0.633 ± 0.044 |
| KDRGEIKIRTKN | 0.696 ± 0.039 |
| KDTDTAHETERK | 0.697 ± 0.033 |
| KDTHNEKKGTPS | 0.686 ± 0.082 |
| KECTWRQGKYNA | 0.752 ± 0.089 |
| KEEKNEENNKKE | 0.641 ± 0.033 |
| KEIRNNEKKKKK | 0.657 ± 0.013 |
| KEKIGIQIKKKR | 0.675 ± 0.047 |
| KELQKKRIKKKN | 0.733 ± 0.078 |
| KEQKNNRKVTKK | 0.715 ± 0.046 |
| KERQERGKRKII | 0.536 ± 0.035 |
| KGDKIEFVENKY | 0.641 ± 0.022 |
| KGDPKLTKKKPL | 0.613 ± 0.077 |
| KGKRQNIERCRK | 0.644 ± 0.099 |
| KGVEVPGERMVG | 0.742 ± 0.021 |
| KGVLTKRAVPST | 0.703 ± 0.025 |
| KHGLSDRAPLPK | 0.698 ± 0.05 |
| KHGSKEAHKNEN | 0.695 ± 0.015 |
| KHKKKKKEYKKK | 0.729 ± 0.03 |
| KHKRDRNIYKVT | 0.679 ± 0.026 |
| KHRGAQRSRARH | 0.645 ± 0.012 |

| Sequence | protein stability index |
| --- | --- |
| KHSRKPTHKKLI | 0.69 ± 0.016 |
| KHTKRIRLYKTK | 0.7831 ± 0.0034 |
| KIGNDQNVEDRK | 0.756 ± 0.059 |
| KIIARMEKGKEI | 0.771 ± 0.042 |
| KIKEKNEKRELI | 0.686 ± 0.11 |
| KIKGVKEEIVKM | 0.686 ± 0.029 |
| KIKKKKKNKTNR | 0.676 ± 0.014 |
| KIKKKRGKTKKK | 0.708 ± 0.018 |
| KIKKNKNKKKKS | 0.686 ± 0.009 |
| KIKNYNSGKIKK | 0.716 ± 0.024 |
| KIKTNLRQKTKN | 0.654 ± 0.016 |
| KIKVKTKKWNIK | 0.681 ± 0.018 |
| KILRRIFRNGGA | 0.615 ± 0.062 |
| KIMKINIYQKKR | 0.691 ± 0.028 |
| KINQDKKKGKKK | 0.686 ± 0.079 |
| KIQGGKQKTVDD | 0.824 ± 0.25 |
| KIYESPLLEIKI | 0.617 ± 0.032 |
| KKEDNKEKYRKK | 0.667 ± 0.013 |
| KKEKDKTINKQK | 0.697 ± 0.067 |
| KKEKEKRRDRWR | 0.661 ± 0.014 |
| KKENKSKKIINR | 0.568 ± 0.028 |
